Measurements from publication PMC10397247.

Columns and labels:
Experiment in all cases: two-hybrid library CCmax;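 also: natural log of median RNA to DNA barcode read ratio; higher means stronger binding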
4H2162-AA = target: T1, 4H2162-AA; conditions: mean of both orientations
T1 chain: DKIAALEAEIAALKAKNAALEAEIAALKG

4H891-AA = target: T2, 4H891-AA; conditions: mean of both orientations
T2 chain: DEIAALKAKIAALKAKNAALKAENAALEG

4H3130-AA = target: T3, 4H3130-AA
T3 chain: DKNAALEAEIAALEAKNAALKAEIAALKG

4H570-AA = target: T4, 4H570-AA; conditions: mean of both orientations
T4 chain: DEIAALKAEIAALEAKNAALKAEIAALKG

4H3590-AA = target: T5, 4H3590-AA; conditions: mean of both orientations
T5 chain: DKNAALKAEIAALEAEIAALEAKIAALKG

4H3009-AA = target: T6, 4H3009-AA; conditions: mean of both orientations
T6 chain: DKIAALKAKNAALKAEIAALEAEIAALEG

4H909-AA = target: T7, 4H909-AA; conditions: mean of both orientations
T7 chain: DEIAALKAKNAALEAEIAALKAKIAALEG

4H2473-AA = target: T8, 4H2473-AA; conditions: mean of both orientations
T8 chain: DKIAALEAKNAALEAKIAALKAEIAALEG

4H536-AA = target: T9, 4H536-AA; conditions: mean of both orientations
T9 chain: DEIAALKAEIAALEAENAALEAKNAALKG

4H3753-AA = target: T10, 4H3753-AA; conditions: mean of both orientations
T10 chain: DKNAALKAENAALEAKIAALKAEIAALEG

4H3120-AA = target: T11, 4H3120-AA; conditions: mean of both orientations
T11 chain: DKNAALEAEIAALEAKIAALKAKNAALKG

4H2109-AA = target: T12, 4H2109-AA; conditions: mean of both orientations
T12 chain: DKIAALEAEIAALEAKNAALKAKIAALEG

4H2274-AA = target: T13, 4H2274-AA; conditions: mean of both orientations
T13 chain: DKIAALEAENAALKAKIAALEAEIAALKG

4H3016-AA = target: T14, 4H3016-AA; conditions: mean of both orientations
T14 chain: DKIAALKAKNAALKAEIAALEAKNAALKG

4H1864-AA = target: T15, 4H1864-AA; conditions: mean of both orientations
T15 chain: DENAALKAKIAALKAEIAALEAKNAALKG

4H2865-AA = target: T16, 4H2865-AA; conditions: mean of both orientations
T16 chain: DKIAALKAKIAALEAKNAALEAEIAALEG

4H2330-AA = target: T17, 4H2330-AA; conditions: mean of both orientations
T17 chain: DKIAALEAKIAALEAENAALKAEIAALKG

4H310-AA = target: T18, 4H310-AA; conditions: mean of both orientations
T18 chain: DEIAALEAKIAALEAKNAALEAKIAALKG

4H3381-AA = target: T19, 4H3381-AA; conditions: mean of both orientations
T19 chain: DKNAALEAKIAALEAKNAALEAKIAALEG

4H458-AA = target: T20, 4H458-AA; conditions: mean of both orientations
T20 chain: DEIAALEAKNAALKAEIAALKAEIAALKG

4H3865-AA = target: T21, 4H3865-AA; conditions: mean of both orientations
T21 chain: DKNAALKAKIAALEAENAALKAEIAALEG

4H797-AA = target: T22, 4H797-AA; conditions: mean of both orientations
T22 chain: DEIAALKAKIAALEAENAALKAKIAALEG

4H1842-AA = target: T23, 4H1842-AA; conditions: mean of both orientations
T23 chain: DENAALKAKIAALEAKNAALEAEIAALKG

4H710-AA = target: T24, 4H710-AA; conditions: mean of both orientations
T24 chain: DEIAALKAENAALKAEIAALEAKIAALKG

4H745-AA = target: T25, 4H745-AA; conditions: mean of both orientations
T25 chain: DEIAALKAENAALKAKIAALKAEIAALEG

4H3395-AA = target: T26, 4H3395-AA
T26 chain: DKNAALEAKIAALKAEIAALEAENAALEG

4H3165-AA = target: T27, 4H3165-AA; conditions: mean of both orientations
T27 chain: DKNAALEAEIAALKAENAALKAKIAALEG

4H3410-AA = target: T28, 4H3410-AA; conditions: mean of both orientations
T28 chain: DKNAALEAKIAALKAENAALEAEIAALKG

4H2649-AA = target: T29, 4H2649-AA; conditions: mean of both orientations
T29 chain: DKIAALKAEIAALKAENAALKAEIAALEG

4H94-AA = target: T30, 4H94-AA; conditions: mean of both orientations
T30 chain: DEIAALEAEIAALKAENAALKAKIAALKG

4H850-AA = target: T31, 4H850-AA; conditions: mean of both orientations
T31 chain: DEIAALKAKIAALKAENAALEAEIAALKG

4H2698-AA = target: T32, 4H2698-AA; conditions: mean of both orientations
T32 chain: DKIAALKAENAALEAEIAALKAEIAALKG

4H485-AA = target: T33, 4H485-AA; conditions: mean of both orientations
T33 chain: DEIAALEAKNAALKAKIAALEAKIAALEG

4H2389-AA = target: T34, 4H2389-AA; conditions: mean of both orientations
T34 chain: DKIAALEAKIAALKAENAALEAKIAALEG

4H174-AA = target: T35, 4H174-AA
T35 chain: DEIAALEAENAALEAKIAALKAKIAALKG

4H1877-AA = target: T36, 4H1877-AA; conditions: mean of both orientations
T36 chain: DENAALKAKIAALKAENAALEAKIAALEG

4H2253-AA = target: T37, 4H2253-AA; conditions: mean of both orientations
T37 chain: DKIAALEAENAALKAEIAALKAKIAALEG

4H930-AA = target: T38, 4H930-AA; conditions: mean of both orientations
T38 chain: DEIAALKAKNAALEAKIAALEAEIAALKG

4H2725-AA = target: T39, 4H2725-AA; conditions: mean of both orientations
T39 chain: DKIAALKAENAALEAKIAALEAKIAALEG

4H629-AA = target: T40, 4H629-AA; conditions: mean of both orientations
T40 chain: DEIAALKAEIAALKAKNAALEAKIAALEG

4H2438-AA = target: T41, 4H2438-AA; conditions: mean of both orientations
T41 chain: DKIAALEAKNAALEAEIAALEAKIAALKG

4H3697-AA = target: T42, 4H3697-AA; conditions: mean of both orientations
T42 chain: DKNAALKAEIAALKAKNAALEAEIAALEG

B1: 4H174-AA (peptide)
chain: DEIAALEAENAALEAKIAALKAKIAALKG
Question: With B1 as the binder, how does the interaction score (4H2162-AA) read?
Answer: -0.944

Question: What about the interaction score (4H891-AA) of the same binder?
Answer: -0.401

Question: What about the interaction score (4H3130-AA) of the same binder?
Answer: 1.99

Question: And the interaction score (4H570-AA)?
Answer: 1.49

Question: And the interaction score (4H3590-AA)?
Answer: 2.2

Question: And the interaction score (4H3009-AA)?
Answer: 2.3

Question: And the interaction score (4H909-AA)?
Answer: 0.929

Question: What about the interaction score (4H2473-AA) of the same binder?
Answer: 1.69

Question: And the interaction score (4H536-AA)?
Answer: -0.546

Question: And the interaction score (4H3753-AA)?
Answer: 1.06

Question: And the interaction score (4H3120-AA)?
Answer: -0.846

Question: And the interaction score (4H2109-AA)?
Answer: 2.01

Question: And the interaction score (4H2274-AA)?
Answer: 1.3

Question: And the interaction score (4H3016-AA)?
Answer: 1.81

Question: What about the interaction score (4H1864-AA) of the same binder?
Answer: -0.256

Question: What about the interaction score (4H2865-AA) of the same binder?
Answer: 0.805

Question: And the interaction score (4H2330-AA)?
Answer: 0.552

Question: What about the interaction score (4H310-AA) of the same binder?
Answer: 1.6

Question: What about the interaction score (4H3381-AA) of the same binder?
Answer: -1.38

Question: What about the interaction score (4H458-AA) of the same binder?
Answer: 0.887

Question: What about the interaction score (4H3865-AA) of the same binder?
Answer: 0.259

Question: And the interaction score (4H797-AA)?
Answer: -1.35

Question: What about the interaction score (4H1842-AA) of the same binder?
Answer: -0.689

Question: And the interaction score (4H710-AA)?
Answer: 2.23

Question: What about the interaction score (4H745-AA) of the same binder?
Answer: 1.69

Question: And the interaction score (4H3395-AA)?
Answer: 0.219

Question: What about the interaction score (4H3165-AA) of the same binder?
Answer: -1.24

Question: What about the interaction score (4H3410-AA) of the same binder?
Answer: -0.289

Question: And the interaction score (4H2649-AA)?
Answer: -0.748

Question: And the interaction score (4H94-AA)?
Answer: 1.29

Question: And the interaction score (4H850-AA)?
Answer: 1.05

Question: What about the interaction score (4H2698-AA) of the same binder?
Answer: 2.04

Question: And the interaction score (4H485-AA)?
Answer: 1.94

Question: What about the interaction score (4H2389-AA) of the same binder?
Answer: -0.219

Question: And the interaction score (4H174-AA)?
Answer: 1.79

Question: What about the interaction score (4H1877-AA) of the same binder?
Answer: -0.507

Question: What about the interaction score (4H2253-AA) of the same binder?
Answer: 0.429

Question: And the interaction score (4H930-AA)?
Answer: 1.44

Question: What about the interaction score (4H2725-AA) of the same binder?
Answer: 1.47

Question: What about the interaction score (4H629-AA) of the same binder?
Answer: -0.697

Question: What about the interaction score (4H2438-AA) of the same binder?
Answer: 2.25

Question: What about the interaction score (4H3697-AA) of the same binder?
Answer: -0.364
